The record followed here is PMC8104893 (Science Advances, 2021).

In this assay the target is T1, GST-XBAT31 (Arabidopsis, UniProt Q94B55 1-456).
T1 sequence (looked up): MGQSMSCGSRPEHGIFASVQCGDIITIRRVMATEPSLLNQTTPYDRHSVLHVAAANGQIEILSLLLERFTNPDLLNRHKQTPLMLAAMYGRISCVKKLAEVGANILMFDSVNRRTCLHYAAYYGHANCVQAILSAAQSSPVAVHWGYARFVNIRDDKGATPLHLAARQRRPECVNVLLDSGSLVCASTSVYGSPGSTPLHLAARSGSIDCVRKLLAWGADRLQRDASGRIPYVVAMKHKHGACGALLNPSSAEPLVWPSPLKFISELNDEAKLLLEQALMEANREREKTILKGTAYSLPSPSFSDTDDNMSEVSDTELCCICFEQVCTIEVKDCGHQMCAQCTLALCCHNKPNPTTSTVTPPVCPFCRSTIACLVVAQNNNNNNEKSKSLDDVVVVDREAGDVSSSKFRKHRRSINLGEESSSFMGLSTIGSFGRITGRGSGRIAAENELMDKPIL
Description: pull-down.

B1: MBP-BBX18 (natural protein, Arabidopsis, UniProt Q9SJU5 1-172, looked up)
chain: MRILCDACESAAAIVFCAADEAALCCSCDEKVHKCNKLASRHLRVGLADPSNAPSCDICENAPAFFYCEIDGSSLCLQCDMVVHVGGKRTHRRFLLLRQRIEFPGDKPNHADQLGLRCQKASSGRGQESNGNGDHDHNMIDLNSNPQRVHEPGSHNQEEGIDVNNANNHEHE
Turning to B1, the binding result is “binds”.
